We go through ten molecules from patent US20160289270A1, “Methods, Peptides and Antibodies for Preventing, Treating and Diagnosing an Inflammatory Condition” (WESTFAELISCHE WILHELMS-UNIVERSITAET MUENSTER, priority 2013, published 2016).

The target in one test is T1, his-tagged rhTLR4/MD2 (Homo sapiens, UniProt O00206+Q9Y6Y9).
T1 construct: purchased R&D SYSTEMS
The test can be described thus: Immunoprecipitation on TLR4/MD2-coupled beads, eluates analysed by MALDI-TOF mass spectrometry. The test is classed as binding. The following applies: beads with TLR4/MD2, 3 h at 4° C., 1 mM Calcium, elution with 10 mM TRIS/2 mM EDTA. As to the method: Anti-His antibody (5 μL, 0.5 mg/mL, Invivogen) and his-tagged rhTLR4/MD2 (5 μL, 1 mg/mL, carrier free, R&D SYSTEMS) were mixed and coupled to Protein A/G Agarose ([…], Thermo Scientific). Trypsin digested peptides of S100A9 were added for 3 h at 4° C. in the presence of 1 mM Calcium. After washing of the beads in HBS/1 mM Ca-buffer for three times bound peptidic fragments were eluted by addition of 10 mM TRIS/2 mM EDTA-buffer and analysed by ESI and MALDI-TOF-mass spectrometry. Identical experiments were performed to analyze the binding of the chemical synthesized peptides of S100A9 (aa63-79), S100A8 (aa55-71) and the corresponding control peptides aa63-79 A5 and aa55-71 A3.

Another test deals with TLR4/MD2 (Homo sapiens, UniProt O00206+Q9Y6Y9). The test can be described thus: Modified S100A9-ELISA: binding of S100A9-wt and mutant proteins to plate-coupled TLR4/MD2. The following applies: 2 μg/ml protein, two hours at room temperature, absorbance at 450 nm, FIG. 4B/4C. The procedure:
Binding of S100A9 proteins to TLR4/MD2 was analysed by a modified S100A9-ELISA. Briefly, TLR4/MD2 was coupled to the wells of a 96-well plate and served as capturing molecule. After blocking of the unspecific binding sites by PBS/5% skim milk powder plates were washed three times. S100A9-wt or mutant S100A9 proteins were added at a concentration of 2 μg/ml each in the presence and absence of 100 μM Calcium and incubated for two hours at room temperature. Unbound S100A9 was removed by washing the plates for three times followed by the addition of a primary anti-S100A9-antibody (1 μg/ml, polyclonal, rabbit). After a washing step the secondary anti-rabbit-IgG-antibody coupled to HRP (1 μg/ml from Cell Signalling) was added. TMB was used as substrate for HRP to quantify binding by absorbance readings at 450 nm in an ELISA reader (Anthos Mikrosysteme).
For orientation: ELISA stands for enzyme-linked immunosorbent assay.

Chain of TLR4/MD2 (O00206 24-631 limits assumed): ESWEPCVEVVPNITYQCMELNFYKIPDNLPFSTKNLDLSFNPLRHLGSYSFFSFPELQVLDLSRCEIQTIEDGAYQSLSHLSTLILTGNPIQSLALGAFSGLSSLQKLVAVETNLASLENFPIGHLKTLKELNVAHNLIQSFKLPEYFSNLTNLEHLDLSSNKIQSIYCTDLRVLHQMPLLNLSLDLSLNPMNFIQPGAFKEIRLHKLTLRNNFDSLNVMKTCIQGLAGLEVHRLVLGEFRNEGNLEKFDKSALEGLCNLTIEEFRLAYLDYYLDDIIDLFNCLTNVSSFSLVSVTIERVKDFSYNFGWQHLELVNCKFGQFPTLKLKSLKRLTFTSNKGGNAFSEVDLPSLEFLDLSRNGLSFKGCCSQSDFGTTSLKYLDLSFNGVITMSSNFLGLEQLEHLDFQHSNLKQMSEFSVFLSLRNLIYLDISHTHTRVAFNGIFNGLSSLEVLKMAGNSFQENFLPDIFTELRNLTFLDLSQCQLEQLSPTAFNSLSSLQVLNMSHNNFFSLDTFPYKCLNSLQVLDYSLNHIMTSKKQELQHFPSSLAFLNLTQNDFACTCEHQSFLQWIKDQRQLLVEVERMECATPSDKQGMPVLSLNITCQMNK
Chain of TLR4/MD2 (Q9Y6Y9 17-160 limits assumed): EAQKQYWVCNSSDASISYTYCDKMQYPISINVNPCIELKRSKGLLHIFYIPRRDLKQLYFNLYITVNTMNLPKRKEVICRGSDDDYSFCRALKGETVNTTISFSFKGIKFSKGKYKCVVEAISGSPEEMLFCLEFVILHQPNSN
T1 sequence (O00206 24-631 limits assumed): as the sequence (O00206 24-631 limits assumed) above
T1 sequence (Q9Y6Y9 17-160 limits assumed): as the sequence (Q9Y6Y9 17-160 limits assumed) above

For the molecule “No. 15: tryptic fragment of human S100A9, amino acid sequence from positions 73 to 85, portion of the C-terminal EF Hand (QLSFEEFIMLMAR; UniProt P06702 73-85, looked up, fragment)”, the “binding to TLR4/MD2 (peptide detected in eluate by MALDI-TOF mass spectrometry)” value (shortened to “binding to TLR4/MD2”) in the test with his-tagged rhTLR4/MD2 is given as “specific interaction with TLR4/MD2”.
Consider “63-79 A5: control peptide, S100A9 positions 63-79 with E64A, D65A, Q73A, E77A and K72A exchanged to alanine (MAALDTNADAALSFAEF) [reference compound]”, for which the “binding to TLR4/MD2” value with his-tagged rhTLR4/MD2 was “no binding could be detected”.
With “55-71: synthetic peptide, positions 55-71 of human S100A8, complete C-terminal EF hand, FKELDINTDGAVNFQEF”, the “binding to TLR4/MD2” value with his-tagged rhTLR4/MD2 is on record as “able to bind to TLR4/MD2”.
With “63-79: synthetic peptide, amino acid positions 63-79 of S100A9, complete C-terminal EF hand, MEDLDTNADKQLSFEEF”, the “binding to TLR4/MD2” value with his-tagged rhTLR4/MD2 is on record as “able to bind to TLR4/MD2”.

B1: S100A9E64A: purified recombinant S100A9 mutant, alanine instead of E64 (protein)
chain: MTCKMSQLERNIETIINTFHQYSVKLGHPDTLNQGEFKELVRKDLQNFLKKENKNEKVIEHIMADLDTNADKQLSFEEFIMLMARLTWASHEKMHEGDEGPGHHHKPGLGEGTP
Consider B1, for which the “binding to the receptor TLR4/MD2 compared to non-mutated protein (S100A9 wt)” value in the test with TLR4/MD2 is on record as “weaker binding”.

B2: S100A9E77A: purified recombinant S100A9 mutant, alanine instead of E77 (protein)
chain: MTCKMSQLERNIETIINTFHQYSVKLGHPDTLNQGEFKELVRKDLQNFLKKENKNEKVIEHIMEDLDTNADKQLSFAEFIMLMARLTWASHEKMHEGDEGPGHHHKPGLGEGTP
Consider B2, for which the “binding to the receptor TLR4/MD2 compared to non-mutated protein (S100A9 wt)” value in the test with TLR4/MD2 is reported as “weaker binding”.

B3: S100A9Q73A: purified recombinant S100A9 mutant, alanine instead of Q73 (protein)
chain: MTCKMSQLERNIETIINTFHQYSVKLGHPDTLNQGEFKELVRKDLQNFLKKENKNEKVIEHIMEDLDTNADKALSFEEFIMLMARLTWASHEKMHEGDEGPGHHHKPGLGEGTP
Turning to B3, the “binding to the receptor TLR4/MD2 compared to non-mutated protein (S100A9 wt)” value with TLR4/MD2 is listed as “weaker binding”.

B4: S100A9R85A: purified recombinant S100A9 mutant, alanine instead of R85 (protein)
chain: MTCKMSQLERNIETIINTFHQYSVKLGHPDTLNQGEFKELVRKDLQNFLKKENKNEKVIEHIMEDLDTNADKQLSFEEFIMLMAALTWASHEKMHEGDEGPGHHHKPGLGEGTP
For B4, the “binding to the receptor TLR4/MD2 compared to non-mutated protein (S100A9 wt)” value with TLR4/MD2 is on record as “not significantly different”.

B5: S100A9D65A: purified recombinant S100A9 mutant, alanine instead of D65 (protein)
chain: MTCKMSQLERNIETIINTFHQYSVKLGHPDTLNQGEFKELVRKDLQNFLKKENKNEKVIEHIMEALDTNADKQLSFEEFIMLMARLTWASHEKMHEGDEGPGHHHKPGLGEGTP
Turning to B5, the “binding to the receptor TLR4/MD2 compared to non-mutated protein (S100A9 wt)” value with TLR4/MD2 is recorded as “weaker binding”.

B6: S100A9K72A: purified recombinant S100A9 mutant, alanine instead of K72 (protein)
chain: MTCKMSQLERNIETIINTFHQYSVKLGHPDTLNQGEFKELVRKDLQNFLKKENKNEKVIEHIMEDLDTNADAQLSFEEFIMLMARLTWASHEKMHEGDEGPGHHHKPGLGEGTP
For the molecule B6, the “binding to the receptor TLR4/MD2 compared to non-mutated protein (S100A9 wt)” value in the test with TLR4/MD2 is “not significantly different”.
